What was measured:
c-Src SH2 = experiment: SH2 binding enrichment of the phosphorylated peptide, bacterial display (enrichment ratio); higher = better substrate or ligand; peptides without Tyr show the background
Grb2 SH2 = Grb2 SH2 (UniProt P62993); experiment: as above
SHP2-C SH2 = experiment: as above
Fyn = Fyn (UniProt P06241); experiment: phosphorylation enrichment, bacterial display (enrichment ratio); higher = better substrate or ligand; peptides without Tyr show the background
AncSZ = experiment: as above
EPHB2 = EPHB2 (UniProt P29323); experiment: as above
Chain of EPHB2 (P29323 whole entry, looked up): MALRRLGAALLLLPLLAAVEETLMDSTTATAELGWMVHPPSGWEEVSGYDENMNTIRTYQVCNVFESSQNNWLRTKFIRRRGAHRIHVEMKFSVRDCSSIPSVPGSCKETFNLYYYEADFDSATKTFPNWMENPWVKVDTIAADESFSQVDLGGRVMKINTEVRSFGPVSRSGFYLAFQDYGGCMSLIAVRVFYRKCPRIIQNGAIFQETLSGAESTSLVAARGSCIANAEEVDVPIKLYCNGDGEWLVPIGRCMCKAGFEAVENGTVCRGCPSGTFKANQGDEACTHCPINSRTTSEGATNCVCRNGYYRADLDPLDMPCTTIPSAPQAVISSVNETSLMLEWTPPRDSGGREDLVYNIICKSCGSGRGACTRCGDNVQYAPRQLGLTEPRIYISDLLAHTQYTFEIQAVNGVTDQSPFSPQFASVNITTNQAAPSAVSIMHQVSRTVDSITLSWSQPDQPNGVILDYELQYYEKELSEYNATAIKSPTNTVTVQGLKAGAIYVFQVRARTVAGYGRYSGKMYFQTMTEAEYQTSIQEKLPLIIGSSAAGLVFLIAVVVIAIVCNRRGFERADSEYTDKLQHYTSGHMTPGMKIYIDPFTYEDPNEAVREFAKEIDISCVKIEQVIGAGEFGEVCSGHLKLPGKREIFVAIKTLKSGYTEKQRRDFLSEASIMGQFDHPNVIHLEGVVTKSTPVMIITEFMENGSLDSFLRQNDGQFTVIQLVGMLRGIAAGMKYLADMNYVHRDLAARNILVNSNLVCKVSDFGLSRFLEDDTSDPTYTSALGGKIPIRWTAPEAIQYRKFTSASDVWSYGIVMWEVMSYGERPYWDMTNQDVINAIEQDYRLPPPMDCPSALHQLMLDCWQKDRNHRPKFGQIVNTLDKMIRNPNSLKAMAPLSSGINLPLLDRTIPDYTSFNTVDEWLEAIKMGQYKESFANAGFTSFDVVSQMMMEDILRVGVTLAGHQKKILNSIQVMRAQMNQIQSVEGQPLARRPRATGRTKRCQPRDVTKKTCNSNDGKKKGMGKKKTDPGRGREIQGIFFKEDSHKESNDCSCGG

MERTK = MERTK (UniProt Q12866); experiment: as above
Hck = Hck (UniProt P08631); experiment: as above
Chain of Hck (P08631 whole entry, looked up): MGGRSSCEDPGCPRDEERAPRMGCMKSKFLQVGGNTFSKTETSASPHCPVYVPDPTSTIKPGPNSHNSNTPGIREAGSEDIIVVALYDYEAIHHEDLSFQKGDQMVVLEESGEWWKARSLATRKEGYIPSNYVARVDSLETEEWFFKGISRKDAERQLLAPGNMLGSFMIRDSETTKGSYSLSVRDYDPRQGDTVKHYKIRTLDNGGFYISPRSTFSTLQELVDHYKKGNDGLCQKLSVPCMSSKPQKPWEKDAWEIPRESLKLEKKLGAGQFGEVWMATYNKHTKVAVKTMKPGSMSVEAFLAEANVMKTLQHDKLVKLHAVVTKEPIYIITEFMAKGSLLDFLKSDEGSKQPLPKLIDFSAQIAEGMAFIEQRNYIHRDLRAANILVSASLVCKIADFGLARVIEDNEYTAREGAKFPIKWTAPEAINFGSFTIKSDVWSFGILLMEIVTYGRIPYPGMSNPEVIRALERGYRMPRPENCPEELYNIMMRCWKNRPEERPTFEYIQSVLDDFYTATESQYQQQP

c-Abl (mouse) = experiment: as above
FGFR3 = FGFR3 (UniProt P22607); experiment: as above
Chain of FGFR3 (P22607 whole entry, looked up): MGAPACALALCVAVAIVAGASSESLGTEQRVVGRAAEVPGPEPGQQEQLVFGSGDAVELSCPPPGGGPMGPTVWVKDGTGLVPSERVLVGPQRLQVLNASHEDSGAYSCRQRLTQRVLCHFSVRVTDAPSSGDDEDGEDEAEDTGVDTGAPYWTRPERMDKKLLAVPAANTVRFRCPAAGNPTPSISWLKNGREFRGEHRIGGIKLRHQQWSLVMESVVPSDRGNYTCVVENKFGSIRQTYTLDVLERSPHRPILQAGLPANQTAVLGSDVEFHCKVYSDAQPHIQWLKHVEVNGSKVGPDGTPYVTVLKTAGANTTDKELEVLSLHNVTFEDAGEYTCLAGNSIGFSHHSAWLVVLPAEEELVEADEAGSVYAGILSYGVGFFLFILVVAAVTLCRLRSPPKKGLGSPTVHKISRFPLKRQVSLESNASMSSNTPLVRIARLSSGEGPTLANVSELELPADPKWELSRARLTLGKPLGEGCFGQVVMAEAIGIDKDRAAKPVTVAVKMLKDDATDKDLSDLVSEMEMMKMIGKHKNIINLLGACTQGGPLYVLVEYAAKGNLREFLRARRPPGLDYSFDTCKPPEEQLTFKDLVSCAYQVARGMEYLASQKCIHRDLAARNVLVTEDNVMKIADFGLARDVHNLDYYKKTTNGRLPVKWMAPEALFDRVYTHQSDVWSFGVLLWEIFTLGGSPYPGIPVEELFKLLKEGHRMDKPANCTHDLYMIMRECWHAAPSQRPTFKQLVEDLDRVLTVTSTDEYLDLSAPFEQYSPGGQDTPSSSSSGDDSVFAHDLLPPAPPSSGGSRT

c-Src = experiment: as above
Jak2 = Jak2 (UniProt O60674); experiment: as above
Chain of Jak2 (O60674 whole entry, looked up): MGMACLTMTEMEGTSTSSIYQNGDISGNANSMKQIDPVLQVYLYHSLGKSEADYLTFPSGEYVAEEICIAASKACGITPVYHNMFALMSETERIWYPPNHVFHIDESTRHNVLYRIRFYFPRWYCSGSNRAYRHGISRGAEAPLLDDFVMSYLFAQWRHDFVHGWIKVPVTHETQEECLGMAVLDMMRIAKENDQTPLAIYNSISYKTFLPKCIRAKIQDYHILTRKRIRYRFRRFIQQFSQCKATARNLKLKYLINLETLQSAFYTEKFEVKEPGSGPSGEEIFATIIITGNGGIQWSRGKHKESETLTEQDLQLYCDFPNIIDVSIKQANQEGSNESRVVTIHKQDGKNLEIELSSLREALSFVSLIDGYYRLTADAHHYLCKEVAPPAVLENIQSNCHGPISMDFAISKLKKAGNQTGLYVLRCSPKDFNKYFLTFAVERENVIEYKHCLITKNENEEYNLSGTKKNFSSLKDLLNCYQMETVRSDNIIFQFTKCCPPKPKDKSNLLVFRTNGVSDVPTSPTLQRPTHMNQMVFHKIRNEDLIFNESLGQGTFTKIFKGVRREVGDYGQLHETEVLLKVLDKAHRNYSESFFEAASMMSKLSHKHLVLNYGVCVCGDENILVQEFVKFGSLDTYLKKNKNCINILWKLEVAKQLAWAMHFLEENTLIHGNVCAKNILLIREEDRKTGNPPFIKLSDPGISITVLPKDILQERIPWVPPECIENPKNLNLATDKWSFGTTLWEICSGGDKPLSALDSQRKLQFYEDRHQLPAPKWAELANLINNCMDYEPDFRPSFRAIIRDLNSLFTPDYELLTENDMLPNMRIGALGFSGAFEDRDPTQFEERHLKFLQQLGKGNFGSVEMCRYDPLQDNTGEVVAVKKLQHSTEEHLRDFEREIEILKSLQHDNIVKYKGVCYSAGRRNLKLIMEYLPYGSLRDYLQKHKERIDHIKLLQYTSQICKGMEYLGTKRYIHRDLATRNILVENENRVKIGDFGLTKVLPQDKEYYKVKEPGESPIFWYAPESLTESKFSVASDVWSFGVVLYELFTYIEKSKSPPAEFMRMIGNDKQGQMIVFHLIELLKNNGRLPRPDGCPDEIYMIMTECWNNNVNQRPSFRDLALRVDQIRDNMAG

EPHB1 = EPHB1 (UniProt P54762); experiment: as above
Chain of EPHB1 (P54762 whole entry, looked up): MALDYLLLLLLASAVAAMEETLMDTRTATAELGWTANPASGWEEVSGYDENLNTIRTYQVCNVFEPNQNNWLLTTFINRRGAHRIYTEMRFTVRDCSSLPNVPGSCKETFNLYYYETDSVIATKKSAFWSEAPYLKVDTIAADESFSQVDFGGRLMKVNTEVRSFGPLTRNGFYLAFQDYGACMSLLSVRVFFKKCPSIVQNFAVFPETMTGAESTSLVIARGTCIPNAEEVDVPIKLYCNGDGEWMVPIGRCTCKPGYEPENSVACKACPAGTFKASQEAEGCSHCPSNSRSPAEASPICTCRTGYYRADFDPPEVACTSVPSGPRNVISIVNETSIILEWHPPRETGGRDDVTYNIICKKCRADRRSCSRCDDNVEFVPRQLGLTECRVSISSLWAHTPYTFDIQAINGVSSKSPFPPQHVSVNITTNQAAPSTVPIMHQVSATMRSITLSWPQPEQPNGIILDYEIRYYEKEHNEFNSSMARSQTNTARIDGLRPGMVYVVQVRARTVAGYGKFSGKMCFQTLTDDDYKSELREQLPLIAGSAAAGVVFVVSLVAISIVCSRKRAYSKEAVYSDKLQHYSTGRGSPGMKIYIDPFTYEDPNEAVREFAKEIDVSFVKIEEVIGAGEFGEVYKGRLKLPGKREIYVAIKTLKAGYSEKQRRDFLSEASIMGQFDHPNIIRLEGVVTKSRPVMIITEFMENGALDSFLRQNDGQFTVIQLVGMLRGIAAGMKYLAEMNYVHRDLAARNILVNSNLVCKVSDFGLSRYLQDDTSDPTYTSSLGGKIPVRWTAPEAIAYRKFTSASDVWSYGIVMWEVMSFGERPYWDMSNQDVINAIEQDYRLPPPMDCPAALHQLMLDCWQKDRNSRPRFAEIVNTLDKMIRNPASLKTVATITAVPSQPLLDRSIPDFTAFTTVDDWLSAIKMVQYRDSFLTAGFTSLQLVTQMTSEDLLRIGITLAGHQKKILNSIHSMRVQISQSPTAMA

Fer (mouse) = experiment: as above
Fes = Fes (UniProt P07332); experiment: as above
FGFR1 = FGFR1 (UniProt P11362); experiment: as above
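Throughout, for SH2 binding enrichment of the phosphorylated peptide, bacterial display: peptide library displayed on the E. coli surface as eCPX fusions, selected cells deep-sequenced, score is each peptide's frequency after selection divided by its frequency in the input.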
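Throughout, for phosphorylation enrichment, bacterial display: 11-residue human phosphosite peptides and single-mutation variants displayed on the E. coli surface, counted by deep sequencing, each peptide's frequency after selection divided by its frequency in the unselected input library; frequency after pTyr selection over input frequency; kinase dosed for 20-30% of maximal phosphorylation in three min.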

Chain of Fyn (P06241 whole entry, looked up): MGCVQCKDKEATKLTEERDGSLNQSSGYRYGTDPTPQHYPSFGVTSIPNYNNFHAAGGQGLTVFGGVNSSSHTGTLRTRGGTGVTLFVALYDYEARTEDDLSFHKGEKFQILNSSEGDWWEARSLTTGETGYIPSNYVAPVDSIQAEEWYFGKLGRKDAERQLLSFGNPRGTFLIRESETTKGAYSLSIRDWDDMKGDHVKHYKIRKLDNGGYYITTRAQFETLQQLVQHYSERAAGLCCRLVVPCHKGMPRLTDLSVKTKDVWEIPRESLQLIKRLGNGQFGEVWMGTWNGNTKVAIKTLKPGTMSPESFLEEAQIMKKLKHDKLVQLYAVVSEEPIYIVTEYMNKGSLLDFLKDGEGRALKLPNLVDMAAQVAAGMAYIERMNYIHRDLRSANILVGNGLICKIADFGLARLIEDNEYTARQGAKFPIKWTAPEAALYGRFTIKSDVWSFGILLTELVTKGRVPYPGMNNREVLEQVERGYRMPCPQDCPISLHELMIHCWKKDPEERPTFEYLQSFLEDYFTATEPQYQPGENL

Row | Sequence | SH2 binding enrichment (c-Src SH2) | SH2 binding enrichment (Grb2 SH2) | SH2 binding enrichment (SHP2-C SH2) | phosphorylation enrichment (Fyn) | phosphorylation enrichment (AncSZ) | phosphorylation enrichment (EPHB2) | phosphorylation enrichment (MERTK) | phosphorylation enrichment (Hck) | phosphorylation enrichment (c-Abl (mouse)) | phosphorylation enrichment (FGFR3) | phosphorylation enrichment (c-Src) | phosphorylation enrichment (Jak2) | phosphorylation enrichment (EPHB1) | phosphorylation enrichment (Fer (mouse)) | phosphorylation enrichment (Fes) | phosphorylation enrichment (FGFR1)
1 | LMLVLYGRIFR [HTR1A_Y215] | 1.42 | 1.54 | 1.25 | 0.715 | 1.84 | 0.958 | 0.475 | 0.495 | 0.791 | 0.809 | 0.644 | 1.48 | 0.646 | 0.768 | 1.24 | 0.372
2 | LNECHYGALIG [BPGM_Y92_R90C] | 0.334 | 0.681 | 0.446 | 4.07 | 0.996 | 0.878 | 0.741 | 2.93 | 1.4 | 0.886 | 3.61 | 0.885 | 0.682 | 1.35 | 1.38 | 0.701
3 | LNERHYGALIG [BPGM_Y92] | 0.613 | 0.871 | 0.74 | 0.514 | 0.534 | 0.469 | 0.536 | 0.561 | 0.461 | 0.47 | 0.639 | 0.571 | 0.319 | 0.459 | 0.609 | 0.42
4 | LPKVSCVKAID [GLRA1_Y307_Y307C] | 0.697 | 0.713 | 0.35 | 0.655 | 1.19 | 0.711 | 0.501 | 0.695 | 0.803 | 1.14 | 0.386 | 0.945 | 0.794 | 0.577 | 1.38 | 0.734
5 | LPKVSYVKAID [GLRA1_Y307] | 0.459 | 0.868 | 0.768 | 0.391 | 0.629 | 0.411 | 0.542 | 0.434 | 0.444 | 0.433 | 0.338 | 0.563 | 0.402 | 0.34 | 0.652 | 0.423
6 | LRNIDYHRLDG [ATRX_Y2083_Y2084H] | 0.714 | 0.725 | 1.25 | 0.342 | 0.497 | 0.405 | 0.379 | 0.33 | 0.521 | 0.617 | 0.297 | 0.632 | 0.42 | 0.571 | 0.606 | 0.511
7 | LRVKMYNFLRS [ADGRG7_Y760] | 1.1 | 1.24 | 0.623 | 1.75 | 2.63 | 2.15 | 1.19 | 1.59 | 1.25 | 2.58 | 0.868 | 1.47 | 1.41 | 1.08 | 3.22 | 1.71
8 | LSDGPYSNPFE [EPOR_Y485_YF] | 1.91 | 0.82 | 0.486 | 1.77 | 1.47 | 0.628 | 0.534 | 0.843 | 0.701 | 0.614 | 0.856 | 0.862 | 0.547 | 0.822 | 1.16 | 0.491
9 | LSDGPYSSPYE [EPOR_Y485_N487S] | 3.98 | 0.808 | 0.762 | 0.882 | 2.3 | 0.95 | 0.523 | 0.739 | 1.18 | 1.61 | 1.09 | 1.2 | 1.2 | 0.831 | 1.39 | 0.421
10 | LSIQCYLRASD [HMGCS2_Y262_L266S] | 0.443 | 0.732 | 0.795 | 2.73 | 3.81 | 3.31 | 1.2 | 2.46 | 1.87 | 5.23 | 0.998 | 2.95 | 3.37 | 2.44 | 4.92 | 1.99
11 | LTAEVYFPSIK [C5orf64_Y60] | 0.453 | 0.763 | 0.708 | 1.02 | 1.78 | 0.906 | 0.648 | 1.06 | 1.64 | 1.88 | 0.75 | 0.996 | 0.966 | 0.963 | 2.04 | 0.866
12 | LTERDYSFVTT [ACTG2_Y199_G198D] | 0.678 | 0.792 | 1.37 | 1.93 | 2.56 | 3.51 | 1.26 | 1.62 | 0.888 | 4.74 | 0.977 | 1.27 | 2.38 | 2.82 | 1.6 | 7.67
13 | LVRPPYSFSAL [FOXI1_Y126_YF] | 0.478 | 0.809 | 0.562 | 0.419 | 0.602 | 0.46 | 0.363 | 0.423 | 0.465 | 0.434 | 0.409 | 0.553 | 0.385 | 0.479 | 0.618 | 0.395
14 | LVRPPYSYSAL [FOXI1_Y126] | 1.8 | 0.885 | 1.72 | 0.722 | 0.952 | 0.568 | 2.06 | 0.528 | 0.641 | 0.713 | 0.704 | 1.03 | 1.07 | 0.619 | 0.862 | 0.572
15 | MDDDQYALLTA [EFCAB6_Y675_T680A] | 0.689 | 0.761 | 0.702 | 0.647 | 1.35 | 0.722 | 0.592 | 0.77 | 0.871 | 1.2 | 0.608 | 1.15 | 0.547 | 0.665 | 1.35 | 1.21
16 | MENFIYESMQF [CYP19A1_Y361_R365Q_YF] | 0.448 | 0.679 | 0.691 | 9.33 | 1.81 | 5.77 | 6.46 | 7.84 | 4.06 | 0.759 | 7.14 | 1.04 | 8.07 | 16.1 | 6.34 | 0.888
17 | MENFIYESMQY [CYP19A1_Y361_R365Q] | 0.786 | 0.914 | 0.954 | 9.05 | 1.37 | 5.02 | 3.64 | 7.07 | 1.24 | 0.724 | 6.84 | 0.894 | 7.15 | 13.3 | 3.36 | 0.652
18 | MEVEQYIFVKC [CYBB_Y324_G322E] | 0.513 | 0.725 | 0.599 | 0.575 | 1.74 | 0.868 | 0.509 | 0.71 | 1.04 | 1.99 | 0.594 | 1.53 | 1.03 | 0.679 | 1.64 | 1.98
19 | MHDKEYYSVHN [MET_Y1234_Y1230H] | 0.513 | 0.827 | 0.423 | 0.488 | 0.78 | 0.497 | 0.496 | 0.459 | 0.479 | 2.08 | 0.61 | 0.807 | 0.53 | 0.411 | 0.748 | 3.36
20 | MPLTEYLKQIK [CNGB3_Y200_R203Q] | 0.364 | 0.534 | 0.651 | 0.448 | 0.83 | 0.511 | 0.459 | 0.514 | 0.844 | 0.526 | 0.582 | 0.749 | 0.572 | 0.451 | 0.995 | 0.533
21 | MTYMFYRENLR [NLRP14_Y443_V441M] | 0.721 | 1.15 | 0.749 | 1.48 | 1.33 | 1 | 0.608 | 1.97 | 0.751 | 0.753 | 2.72 | 1.1 | 0.948 | 0.456 | 1.19 | 0.628
22 | MYVKSYTIHYS [F5_Y2153] | 0.443 | 0.666 | 0.826 | 0.492 | 1.03 | 0.732 | 0.446 | 0.516 | 0.674 | 0.815 | 0.425 | 0.86 | 0.723 | 0.508 | 1.17 | 0.542

Further lines, with some results ahead:

Row | SH2 binding enrichment (c-Src SH2) | SH2 binding enrichment (Grb2 SH2) | SH2 binding enrichment (SHP2-C SH2) | Sequence | phosphorylation enrichment (Fyn) | phosphorylation enrichment (AncSZ) | phosphorylation enrichment (EPHB2) | phosphorylation enrichment (MERTK) | phosphorylation enrichment (Hck) | phosphorylation enrichment (c-Abl (mouse)) | phosphorylation enrichment (FGFR3) | phosphorylation enrichment (c-Src) | phosphorylation enrichment (Jak2) | phosphorylation enrichment (EPHB1) | phosphorylation enrichment (Fer (mouse)) | phosphorylation enrichment (Fes) | phosphorylation enrichment (FGFR1)
23 | 0.59 | 0.732 | 0.578 | LNSFIYSLRNR [OR1A1_Y288_P285S] | 2.42 | 1.3 | 0.653 | 0.733 | 3.1 | 0.866 | 0.671 | 4.01 | 1.02 | 0.617 | 0.693 | 2.02 | 0.618
24 | 0.679 | 0.991 | 0.723 | LPHVIYCRLWR [SMAD2_Y128] | 1.66 | 1.05 | 0.758 | 0.871 | 2.31 | 1.47 | 0.555 | 2.05 | 0.822 | 1.76 | 0.434 | 0.814 | 0.414
25 | 0.445 | 0.885 | 0.533 | LPPGTYPSDFT [UNC5B_Y511_A516T] | 0.82 | 1.58 | 0.536 | 1.04 | 0.613 | 1.78 | 0.85 | 0.697 | 0.571 | 0.694 | 0.403 | 1.25 | 0.717
26 | 1.29 | 1.36 | 2 | LQTYHYHGHSM [PDHA1_Y289_R288H] | 0.671 | 0.974 | 0.636 | 0.911 | 0.742 | 0.559 | 0.963 | 0.916 | 1.52 | 0.689 | 0.75 | 0.943 | 1.16
27 | 0.769 | 0.778 | 0.805 | LSRDVYEEDSF [RET_Y900_YF] | 0.573 | 1.77 | 0.908 | 0.819 | 0.875 | 1.57 | 0.89 | 0.828 | 1.7 | 1.07 | 0.946 | 2.02 | 0.813
28 | 0.445 | 0.796 | 0.733 | LSTPEYGPKLK [TBC1D14_Y46_A43T] | 0.527 | 0.673 | 0.496 | 0.532 | 0.417 | 0.57 | 0.506 | 0.494 | 0.569 | 0.47 | 0.461 | 0.574 | 0.465
29 | 1.53 | 1.35 | 0.906 | LTRDIYKNDYY [ROS1_Y2110_A2106T] | 1.82 | 2.28 | 2.79 | 0.839 | 1.48 | 1.21 | 3.61 | 2.86 | 2.28 | 2.15 | 1 | 1.88 | 5.83
30 | 1.11 | 0.824 | 0.638 | LVQAEYWHDPI [PPT1_Y185] | 0.58 | 1.48 | 0.487 | 0.591 | 0.593 | 1.36 | 2.98 | 0.61 | 1.18 | 0.677 | 0.644 | 1.48 | 3.89
31 | 0.823 | 1.03 | 0.773 | LWQTIYNLEAE [TNNT2_Y251_S249T] | 10.9 | 1.56 | 0.894 | 0.735 | 5.88 | 1.21 | 1.13 | 8.82 | 1.73 | 1.3 | 0.855 | 2.22 | 1.15
32 | 0.523 | 0.84 | 0.765 | MCTVDYLLRLQ [RYR1_Y3921_I3916M] | 0.546 | 1.07 | 0.62 | 0.516 | 0.529 | 0.866 | 0.684 | 0.487 | 1.19 | 0.597 | 0.504 | 1.35 | 0.526
33 | 2.21 | 4.43 | 0.706 | MNKNAYHNVTT [ST3GAL6_Y306_A311T] | 0.34 | 0.497 | 0.352 | 0.412 | 0.385 | 0.525 | 0.495 | 0.364 | 0.434 | 0.358 | 0.322 | 0.426 | 0.358
